This is an account of results in patent publication US20080112961A1.

The target in test [1] is soluble monomeric FcγRIIIA, the extracellular region of FcγRIIIA joined to the linker-AVITAG sequence (UniProt P08637). As to the kind of experiment: BIAcore, Ab on BSA-FITC.
Test [2] has the same target. The test is described as follows: ELISA.
Test [3] addresses FcγRIIB (form not stated) (UniProt P31994). As to the kind of experiment: ELISA. (In general: ELISA stands for enzyme-linked immunosorbent assay.)
Test [4] addresses FcγRIIB-Fc fusion protein, soluble dimer: extracellular domain of FcγRIIB fused to the hinge-CH2-CH3 domain of human IgG2 (human) (UniProt P31994). The test is described as follows: BIAcore, Ab on BSA-FITC. Background: In SPR one partner is held on a chip, and binding of the other changes the refractive index at the surface.

For orientation: Kd means the equilibrium constant for the complex coming apart. Read a high Kd as weaker binding.

FcγRIIB-Fc fusion protein, soluble dimer: extracellular domain of FcγRIIB fused to the hinge-CH2-CH3 domain of human IgG2 (human), sequence (P31994 43-217 limits assumed): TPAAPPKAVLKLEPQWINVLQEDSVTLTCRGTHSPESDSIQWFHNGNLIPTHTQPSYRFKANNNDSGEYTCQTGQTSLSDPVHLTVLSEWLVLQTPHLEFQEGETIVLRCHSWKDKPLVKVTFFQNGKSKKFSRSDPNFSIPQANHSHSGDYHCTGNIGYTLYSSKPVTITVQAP
FcγRIIB (form not stated), sequence (P31994 43-217 limits assumed): as above

In test [1], “ch4-4-20 Mut 10 (P396L, A330S, K288N) (from UniProt P01857 1-330) (antibody)” gave a Kd of 128 nM.
In test [2], “ch4-4-20 wild type (from UniProt P01857 1-330) (antibody)” came in with an ELISA, OD of 0.5 OD.
In test [3], “ch4-4-20 MGFc 28 (N315I, A379M, D399E) (antibody)” returned an ELISA binding, fold vs Wt of 9 X.
On to “ch4-4-20 Mut 6 (S219V) (from UniProt P01857 1-330) (antibody)”, for which, in test [2], the ELISA, OD was determined as 0.6 OD. Further, the figures for the dissociation constant Kd in test [4] and in test [1] were 66.5 nM and 264 nM, respectively.
With “ch4-4-20 Mut 14 (K334E, K288N) (from UniProt P01857 1-330) (antibody)”, the Kd in test [1] came to 75.4 nM. That is a double-digit nanomolar value.
